Measurements published in paper PMC5493754, “Myosin 7 and its adaptors link cadherins to actin” (Nature Communications, 2017).

T1: Myosin 7a MF1.SH3 (human, UniProt Q13402-1 991-1692, residues 1523-1560 were deleted from MF1)
T1 construct: Myosin 7a, human, N-terminal MyTH4-FERM domain and SH3, residues 991-1692 of UniProt Q13402-1; residues 1523-1560 deleted; Thrombin site of the vector replaced by an SSG linker; also called M7a MF1.SH3; Myo7a MF1.SH3; source: E. coli (BL21-AI, BL21 (DE3) Rosetta or BL21-Gold (DE3)), purified (Histrap, CaptoQ, gel filtration)
T1 sequence (looked up): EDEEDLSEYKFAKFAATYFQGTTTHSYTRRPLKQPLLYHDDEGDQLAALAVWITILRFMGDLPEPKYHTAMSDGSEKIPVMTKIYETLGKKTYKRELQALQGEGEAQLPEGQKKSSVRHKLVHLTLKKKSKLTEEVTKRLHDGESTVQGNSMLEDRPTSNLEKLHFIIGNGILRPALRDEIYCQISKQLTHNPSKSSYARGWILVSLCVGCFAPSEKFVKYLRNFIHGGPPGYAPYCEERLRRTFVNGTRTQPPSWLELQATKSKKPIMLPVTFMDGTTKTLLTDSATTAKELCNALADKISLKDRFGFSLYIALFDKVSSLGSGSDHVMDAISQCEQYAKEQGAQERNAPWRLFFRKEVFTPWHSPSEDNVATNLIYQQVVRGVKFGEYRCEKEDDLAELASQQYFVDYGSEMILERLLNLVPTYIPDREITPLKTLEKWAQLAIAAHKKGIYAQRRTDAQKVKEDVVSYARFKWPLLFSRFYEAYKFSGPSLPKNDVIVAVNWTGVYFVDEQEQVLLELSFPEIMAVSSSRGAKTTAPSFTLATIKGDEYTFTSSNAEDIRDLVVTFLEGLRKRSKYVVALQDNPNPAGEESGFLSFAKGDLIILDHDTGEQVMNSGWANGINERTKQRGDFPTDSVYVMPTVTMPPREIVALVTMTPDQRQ

T2: Myosin 7b MF1.SH3 A1128E (human, UniProt Q6PIF6 958-1586, A1128E)
T2 construct: Myosin 7b, human, MF1.SH3, residues 958-1586 of UniProt Q6PIF6; also called M7b MF1.SH3 A1128E; source: E. coli, purified similarly as wild type (Histrap, CaptoQ, gel filtration)
T2 sequence: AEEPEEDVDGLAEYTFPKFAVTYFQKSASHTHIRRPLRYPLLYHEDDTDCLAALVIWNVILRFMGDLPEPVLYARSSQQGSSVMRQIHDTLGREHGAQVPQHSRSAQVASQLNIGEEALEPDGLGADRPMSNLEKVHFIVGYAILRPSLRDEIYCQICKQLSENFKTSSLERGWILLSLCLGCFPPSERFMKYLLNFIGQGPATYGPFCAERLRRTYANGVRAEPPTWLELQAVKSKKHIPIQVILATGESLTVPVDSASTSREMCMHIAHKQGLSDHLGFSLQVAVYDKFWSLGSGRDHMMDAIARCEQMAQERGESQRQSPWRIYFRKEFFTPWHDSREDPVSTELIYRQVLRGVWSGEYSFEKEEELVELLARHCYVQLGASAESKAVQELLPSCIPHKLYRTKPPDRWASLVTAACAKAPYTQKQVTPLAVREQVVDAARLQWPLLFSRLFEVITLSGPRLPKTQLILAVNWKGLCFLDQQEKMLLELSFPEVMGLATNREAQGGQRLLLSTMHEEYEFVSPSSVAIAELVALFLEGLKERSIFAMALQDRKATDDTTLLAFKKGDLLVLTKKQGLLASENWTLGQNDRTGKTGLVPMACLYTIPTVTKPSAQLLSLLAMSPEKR

T3: Harmonin NPDZ1.PDZ2 (human, UniProt Q9Y6N9-1 1-301)
T3 construct: Harmonin-a1 (USH1C), human, N-terminal domain, PDZ1 and PDZ2, residues 1-301 of UniProt Q9Y6N9-1; source: E. coli BL21 (DE3) Rosetta, purified (Glutathione Sepharose 4B, size-exclusion chromatography)
T3 sequence (looked up): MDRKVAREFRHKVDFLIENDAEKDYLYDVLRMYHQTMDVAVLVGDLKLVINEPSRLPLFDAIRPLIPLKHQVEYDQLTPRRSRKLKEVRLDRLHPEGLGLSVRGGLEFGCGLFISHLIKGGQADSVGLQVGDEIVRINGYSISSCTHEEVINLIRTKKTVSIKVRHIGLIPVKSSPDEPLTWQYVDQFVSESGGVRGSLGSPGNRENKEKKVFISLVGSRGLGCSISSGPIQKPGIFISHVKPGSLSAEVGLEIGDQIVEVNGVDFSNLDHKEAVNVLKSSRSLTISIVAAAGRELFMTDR

T4: Myosin 7b MF1.SH3 (human, UniProt Q6PIF6 958-1586)
T4 construct: also called M7b MF1.SH3; Myo7b MF1.SH3; source: E. coli (BL21-AI, BL21 (DE3) Rosetta or BL21-Gold (DE3)), purified (Histrap, CaptoQ, gel filtration)
T4 sequence: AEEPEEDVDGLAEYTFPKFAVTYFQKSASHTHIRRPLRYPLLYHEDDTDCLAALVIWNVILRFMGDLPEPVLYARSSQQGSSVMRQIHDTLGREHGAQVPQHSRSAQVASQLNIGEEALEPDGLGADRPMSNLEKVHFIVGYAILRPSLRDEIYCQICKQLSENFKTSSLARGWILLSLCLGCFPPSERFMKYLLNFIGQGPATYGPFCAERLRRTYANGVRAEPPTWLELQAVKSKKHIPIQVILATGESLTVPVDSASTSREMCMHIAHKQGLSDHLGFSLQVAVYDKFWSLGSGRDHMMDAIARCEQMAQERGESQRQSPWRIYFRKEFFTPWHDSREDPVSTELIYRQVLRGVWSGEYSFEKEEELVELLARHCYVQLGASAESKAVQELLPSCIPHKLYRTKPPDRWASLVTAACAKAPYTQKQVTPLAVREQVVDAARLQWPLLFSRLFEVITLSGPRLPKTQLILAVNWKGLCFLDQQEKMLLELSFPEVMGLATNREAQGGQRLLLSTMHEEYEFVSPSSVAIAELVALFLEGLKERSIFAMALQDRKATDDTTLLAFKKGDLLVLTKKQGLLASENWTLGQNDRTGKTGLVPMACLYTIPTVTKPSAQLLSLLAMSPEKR

T5: Full length (FL)-harmonin (harmonin-a1) (human, UniProt Q9Y6N9-1 1-552)
T5 construct: Harmonin-a1 (USH1C), human, residues 1-552 of UniProt Q9Y6N9-1; also called FL-harmonin-a; source: E. coli BL21 (DE3) Rosetta, purified (Glutathione Sepharose 4B, size-exclusion chromatography)
T5 sequence (looked up): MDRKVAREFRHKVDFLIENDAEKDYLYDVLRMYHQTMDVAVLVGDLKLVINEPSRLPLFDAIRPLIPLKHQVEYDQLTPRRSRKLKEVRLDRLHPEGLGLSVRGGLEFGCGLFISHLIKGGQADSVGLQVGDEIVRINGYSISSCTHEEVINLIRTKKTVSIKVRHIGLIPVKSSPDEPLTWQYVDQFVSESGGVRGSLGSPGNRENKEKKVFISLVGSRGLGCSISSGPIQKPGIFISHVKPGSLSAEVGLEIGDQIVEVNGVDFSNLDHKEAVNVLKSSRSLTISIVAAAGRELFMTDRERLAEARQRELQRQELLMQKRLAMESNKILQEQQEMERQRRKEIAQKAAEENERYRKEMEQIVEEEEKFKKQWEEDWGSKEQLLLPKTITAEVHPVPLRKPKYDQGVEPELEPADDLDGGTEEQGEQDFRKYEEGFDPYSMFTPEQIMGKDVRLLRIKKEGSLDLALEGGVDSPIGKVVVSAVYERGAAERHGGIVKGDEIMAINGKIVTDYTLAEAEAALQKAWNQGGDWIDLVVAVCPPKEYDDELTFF


Columns and labels:
[1] = target: YFP-ANKS4B_(CEN-PBM) (human) (UniProt Q8N8V4); assay: MST; YFP-fused partner constant at 100 nM, non-fluorescent protein titrated (16 two-fold dilutions); 20 mM Hepes pH 7.0, 100 mM NaCl, 1 mM EGTA, 0.5 mM TCEP, 0.05% Tween 20; Monolith NT.115
YFP-SANS_(CEN-PBM) = YFP-SANS_(CEN-PBM) (UniProt Q495M9); assay: as above
[2] = target: YFP-Harmonin-a PDZ3c (human) (UniProt Q9Y6N9); assay: as above
Myosin 7a MF1.SH3 = target: T1, Myosin 7a MF1.SH3; assay: as above; settings: both partners purified
Myosin 7b MF1.SH3 A1128E = target: T2, Myosin 7b MF1.SH3 A1128E; assay: as above; settings: both partners purified
Harmonin NPDZ1.PDZ2 = target: T3, Harmonin NPDZ1.PDZ2; assay: as above; settings: both partners purified
Myosin 7b MF1.SH3 = target: T4, Myosin 7b MF1.SH3; assay: as above; settings: both partners purified
[3] = target: T5, Full length (FL)-harmonin (harmonin-a1); assay: MST; as a1 but 150 mM NaCl (for FL-Harmonin-a); YFP-fused partner constant at 100 nM, non-fluorescent protein titrated; settings: both partners purified

| Kd (Myosin 7a MF1.SH3) [µM] | Kd (Myosin 7b MF1.SH3 A1128E) [µM] | Kd (Harmonin NPDZ1.PDZ2) [µM] | Kd (Myosin 7b MF1.SH3) [µM] | Molecule | also measured |
| --- | --- | --- | --- | --- | --- |
|  |  |  |  | Myosin 7b MF1.SH3 K1194E-K1195E R1171E-R1172E (from UniProt Q6PIF6 958-1586) (domain or fragment) | Kd [1]: 3.1 µM; Kd (YFP-SANS_(CEN-PBM)): 6.6 µM |
|  |  |  |  | Myosin 7b MF2 R1921E-F1923V (from UniProt Q6PIF6 1605-2116) (domain or fragment) | Kd [2]: > 100 µM |
| 0.13 ± 0.02 | 18.2 ± 2.8 | 0.017 | 5.4 ± 1.6 | YFP-SANS_(CEN-PBM) (domain or fragment, UniProt Q495M9 300-461, looked up, The full-length SANS gene was synthesised; source: E. coli (BL21-AI, BL21 (DE3) Rosetta or BL21-Gold (DE3)), purified (Histrap, CaptoQ, gel filtration); not shown: YFP, N-terminal, kept) DSGHDSLFTRPGLGTMVFRRNYLSSGLHGLGREDGGLDGVGAPRGRLQSSPSLDDDSLGSANSLQDRSCGEELPWDELDLGLDEDLEPETSPLETFLASLHMEDFAALLRQEKIDLEALMLCSDLDLRSISVPLGPRKKILGAVRRRRQAMERPPALEDTEL |  |
| 4.9 ± 0.7 | 13.1 ± 0.7 | 0.009 | 4.3 ± 0.8 | YFP-ANKS4B_(CEN-PBM) (domain or fragment, human, UniProt Q8N8V4 259-417, looked up, ANKS4B, human, CEN regions, SAM domain and PBM, residues 259-417 of UniProt Q8N8V4; source: E. coli (BL21-AI, BL21 (DE3) Rosetta or BL21-Gold (DE3)), purified (Histrap, CaptoQ, gel filtration); not shown: YFP, N-terminal, kept) SVHHESILNRPGLGSIVFRRNRISSPEDISDSKREFGFKLPSELLQRQGASEADEGAADEEGEENGLKDDLPWDDDEVEWEEDVVDATPLEVFLLSQHLEEFLPIFKREQIDLEALLLCSDEDLQSIQMQLGPRKKVLNAINRRKQVLQQPGQLVDTSL |  |
|  |  |  |  | YFP-FL-harmonin-ΔCter (domain or fragment, human, UniProt Q9Y6N9-1 1-542, looked up, Harmonin-a1 (USH1C), human, residues 1-542 of UniProt Q9Y6N9-1; also called ^YFPFL ΔCter; source: E. coli BL21 (DE3) Rosetta, purified (Glutathione Sepharose 4B, size-exclusion chromatography)) MDRKVAREFRHKVDFLIENDAEKDYLYDVLRMYHQTMDVAVLVGDLKLVINEPSRLPLFDAIRPLIPLKHQVEYDQLTPRRSRKLKEVRLDRLHPEGLGLSVRGGLEFGCGLFISHLIKGGQADSVGLQVGDEIVRINGYSISSCTHEEVINLIRTKKTVSIKVRHIGLIPVKSSPDEPLTWQYVDQFVSESGGVRGSLGSPGNRENKEKKVFISLVGSRGLGCSISSGPIQKPGIFISHVKPGSLSAEVGLEIGDQIVEVNGVDFSNLDHKEAVNVLKSSRSLTISIVAAAGRELFMTDRERLAEARQRELQRQELLMQKRLAMESNKILQEQQEMERQRRKEIAQKAAEENERYRKEMEQIVEEEEKFKKQWEEDWGSKEQLLLPKTITAEVHPVPLRKPKYDQGVEPELEPADDLDGGTEEQGEQDFRKYEEGFDPYSMFTPEQIMGKDVRLLRIKKEGSLDLALEGGVDSPIGKVVVSAVYERGAAERHGGIVKGDEIMAINGKIVTDYTLAEAEAALQKAWNQGGDWIDLVVAVCPP | Kd [3]: 2.5 µM |
